{"source": "paper PMC8071376", "key": {"[1]": {"system": "His6-RelB (Streptococcus pneumoniae R6)", "assay": "DNase I footprinting", "settings": "DNase I footprinting: 40 mM Tris-HCl pH 7.9, 6 mM MgCl2, 1 mM CaCl2, 10 mM NaCl plus 100 mM NaCl, 1 mM DTT, 10% glycerol, 10 ug/mL heparin or 50 ng …"}, "[2]": {"system": "RelB (untagged, in RelB:RelE-His6 complex);RelE-His6 (Streptococcus pneumoniae R6;Streptococcus pneumoniae R6)", "assay": "DNase I footprinting", "settings": "DNase I footprinting: 40 mM Tris-HCl pH 7.9, 6 mM MgCl2, 1 mM CaCl2, 10 mM NaCl plus 100 mM NaCl, 1 mM DTT, 10% glycerol, 10 ug/mL heparin or 50 ng …"}}, "data": [{"substance": "PrelBE 199-bp promoter fragment", "values": [{"measurement": "binding", "setting": "[1]", "value": 10, "unit": "µM"}, {"measurement": "binding", "setting": "[2]", "value": 1, "unit": "µM"}]}]}
